Bridges are numbered along the chain shown (N, C = ends). Where no end group is shown, it is not given here. [ ]: non-standard residue; d: D form.
Biological target: Lck(h) (lymphocyte-specific protein tyrosine kinase) (human, UniProt P06239 1-509, limits assumed)
Experiment: cell-based or functional assay

Sequence of Lck(h) (lymphocyte-specific protein tyrosine kinase) (P06239 whole entry): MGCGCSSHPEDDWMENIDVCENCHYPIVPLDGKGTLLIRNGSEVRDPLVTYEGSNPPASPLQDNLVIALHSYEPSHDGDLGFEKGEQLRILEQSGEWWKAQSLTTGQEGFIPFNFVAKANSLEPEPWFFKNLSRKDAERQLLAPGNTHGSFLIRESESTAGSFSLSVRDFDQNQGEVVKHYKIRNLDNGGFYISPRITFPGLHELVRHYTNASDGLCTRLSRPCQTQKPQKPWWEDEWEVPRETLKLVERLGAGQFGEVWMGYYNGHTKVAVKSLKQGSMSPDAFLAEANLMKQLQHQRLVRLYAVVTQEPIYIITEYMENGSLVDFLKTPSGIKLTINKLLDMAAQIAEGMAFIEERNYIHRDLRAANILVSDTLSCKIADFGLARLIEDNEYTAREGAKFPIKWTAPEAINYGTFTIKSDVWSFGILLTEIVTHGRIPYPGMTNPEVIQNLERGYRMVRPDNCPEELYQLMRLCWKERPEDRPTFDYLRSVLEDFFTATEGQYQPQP

Binder	Lck activity relative to control (100%), in vitro kinase assay, peptide 1 µM	Lck activity, percentage relative to control, in vitro kinase assay, peptide 1 µM
RRRRRRRRRRRR-NH2 [RRRRRRRRRRRR (IK01200)]	401 % Lck activity relative to control	–
KKKKKKKKKK-NH2 [KKKKKKKKKK (10Lys)]	161 % increase in Lck activity	–
[dR][dR][dR][dR][dR][dR][dR][dR]-NH2 (N-terminus assumed; SMILES N=C(N)NCCC[C@@H](N)C(=O)N[C@H](CCCNC(=N)N)C(=O)N[C@H](CCCNC(=N)N)C(=O)N[C@H](CCCNC(=N)N)C(=O)N[C@H](CCCNC(=N)N)C(=O)N[C@H](CCCNC(=N)N)C(=O)N[C@H](CCCNC(=N)N)C(=O)N[C@H](CCCNC(=N)N)C(N)=O) [rrrrrrrr (IKD00800)]	80 % Lck activity relative to control	–
[dR][dR][dR][dR][dR][dR][dR][dR][dR][dR][dR][dR][dR][dR]-NH2 (N-terminus assumed; SMILES N=C(N)NCCC[C@@H](N)C(=O)N[C@H](CCCNC(=N)N)C(=O)N[C@H](CCCNC(=N)N)C(=O)N[C@H](CCCNC(=N)N)C(=O)N[C@H](CCCNC(=N)N)C(=O)N[C@H](CCCNC(=N)N)C(=O)N[C@H](CCCNC(=N)N)C(=O)N[C@H](CCCNC(=N)N)C(=O)N[C@H](CCCNC(=N)N)C(=O)N[C@H](CCCNC(=N)N)C(=O)N[C@H](CCCNC(=N)N)C(=O)N[C@H](CCCNC(=N)N)C(=O)N[C@H](CCCNC(=N)N)C(=O)N[C@H](CCCNC(=N)N)C(N)=O) [rrrrrrrrrrrrrr (IKD01400)]	228 % Lck activity relative to control	–
RRRRRRRRRHHHHHHHHHH-NH2 [RRRRRRRRR-HHHHHHHHHH (IK00910)]	348 % Lck activity relative to control	–
RSKAK-NH2 [RSKAK (IK5000)]	–	5 % activation of Lck relative to control
RSKAKRR-NH2 [RSKAK-RR (IK50200)]	–	5 % activation of Lck relative to control
RRRRRRRRR-NH2 [RRRRRRRRR (IK00900)]	–	325%
RSKAKNPLYRRRRRRRRR-NH2 [RSKAKNPLY-RRRRRRRRR-NH2 (IK14800)]	–	496%
RSKAKNPLYRRRRR-NH2 [RSKAKNPLY-RRRRR (IK14400)]	–	85%
RSKAKNPLYRRRRRR-NH2 [RSKAKNPLY-RRRRRR (IK14500)]	–	82%
[dR][dS][dK][dA][dK][dN][dP][dL][dY][dR][dR][dR][dR][dR][dR]-NH2 (N-terminus assumed; SMILES CC(C)C[C@@H](NC(=O)[C@H]1CCCN1C(=O)[C@@H](CC(N)=O)NC(=O)[C@@H](CCCCN)NC(=O)[C@@H](C)NC(=O)[C@@H](CCCCN)NC(=O)[C@@H](CO)NC(=O)[C@H](N)CCCNC(=N)N)C(=O)N[C@H](Cc1ccc(O)cc1)C(=O)N[C@H](CCCNC(=N)N)C(=O)N[C@H](CCCNC(=N)N)C(=O)N[C@H](CCCNC(=N)N)C(=O)N[C@H](CCCNC(=N)N)C(=O)N[C@H](CCCNC(=N)N)C(=O)N[C@H](CCCNC(=N)N)C(N)=O) [rskaknply-rrrrrr (ID94600)]	–	60 % increase in Lck activity
CRSKAKNPLYRRRRRRC (disulfide 1-17 (inferred); not fully specified; printed as C-RSKAKNPLY-RRRRRR-C (Cyclised)) [C-RSKAKNPLY-RRRRRR-C (Cyclised) (IK14500C)]	–	221%
RSKAKRRRRRRRRR-NH2 [RSKAK-RRRRRRRRR (IK50900)]	–	531 % increase in Lck activity
RRRRRRRRRYLPNKAKSR-NH2 [RRRRRRRRR-YLPNKAKSR (IK9R94Y)]	–	630 % increase in Lck activity
[dR][dR][dR][dR][dR][dR][dR][dR][dR][dY][dL][dP][dN][dK][dA][dK][dS][dR]-NH2 (N-terminus assumed; SMILES CC(C)C[C@@H](NC(=O)[C@@H](Cc1ccc(O)cc1)NC(=O)[C@@H](CCCNC(=N)N)NC(=O)[C@@H](CCCNC(=N)N)NC(=O)[C@@H](CCCNC(=N)N)NC(=O)[C@@H](CCCNC(=N)N)NC(=O)[C@@H](CCCNC(=N)N)NC(=O)[C@@H](CCCNC(=N)N)NC(=O)[C@@H](CCCNC(=N)N)NC(=O)[C@@H](CCCNC(=N)N)NC(=O)[C@H](N)CCCNC(=N)N)C(=O)N1CCC[C@@H]1C(=O)N[C@H](CC(N)=O)C(=O)N[C@H](CCCCN)C(=O)N[C@H](C)C(=O)N[C@H](CCCCN)C(=O)N[C@H](CO)C(=O)N[C@H](CCCNC(=N)N)C(N)=O) [rrrrrrrrr-ylpnkaksr (IKR81400)]	–	616 % increase in Lck activity
RRRRRRRRRSKAKNPLYR-NH2 [RRRRRRRRR-SKAKNPLYR (IK9R94S)]	–	542 % increase in Lck activity
RSKAKNPLYKKKKKKKKK-NH2 [RSKAKNPLY-KKKKKKKKK (IK94K90)]	–	49 % increase in Lck activity
RSKAKNPLYRHHHHHHHHHH-NH2 [RSKAKNPLY-RHHHHHHHHHH (IK14010)]	–	30 % increase in Lck activity
HHHHHRSKAKNPLYRRRRRRRRR-NH2 [HHHHH-RSKAKNPLY-RRRRRRRRR (IK11480)]	–	883 % increase in Lck activity
RSKAKNPLYRRRRRRRRRHHHHHHHHHH-NH2 [RSKAKNPLY-RRRRRRRRR-HHHHHHHHHH (IK14810)]	–	899 % increase in Lck activity
